Source: US20260014245A1 (MAX DELBRUECK CENTRUM F R MOLEKULARE MEDIZIN IN DER …, published 2026)

Legend:
[1] = molecular target: T1, MERS-CoV RBD (wild type, amino acids G372-L588, AviTag, Twin Strep tag, 6xHis) (MERS-CoV); assay: ELISA on coated RBD, antibody titrated, anti human IgG OD 405 nm
[2] = molecular target: T1, MERS-CoV RBD (wild type, amino acids …); assay: ELISA, anti Twin-Strep readout OD 405 nm (the Twin-Strep-tagged RBD is detected)
[3] = molecular target: T1, MERS-CoV RBD (wild type, amino acids …); assay: human DPP4
[4] = molecular target: T1, MERS-CoV RBD (wild type, amino acids …); assay: serum pull-down with RBD coated beads

B1: LCA60 (antibody, V domains shown)
VH: EVQLLESGGGLVKPGGSLRLSCEASGLTFSNVWMSWVRQAPGKGLEWVGRIKRKSEGATTDYGAPVKGRFTLSRDDSKNTVYLQMNSLKIDDTAVYYCSTLTRGGDVWSSSYYFDYWGQGALVTVSS
VL: QSALTQPASVSGSPGQSITISCTGTSSDVGTYDLVSWYQQHPGKSPKLMIYADIKRPSGVSHRFSGSKSGNTASLTISGLQSADEADYYCCLYAGSSTSVIFGGGTKVT
[1]
  EC50 (read off the curve): ~0.03 µg/mL

B2: D12 (antibody, V domains shown)
VH: EVKLVESGGGLVKPGGSLKLSCAASGFTFSSYAMSWVRQTPEKRLEWVATISSGGTYTYYPDSVKGRFTISRDNAENTLYLQMSSLRSEDTAMYYCVRDGNSMDYWGQGTSVTVSS
VL: DIQMTQTTSSLSASLGDRVTIICRASQDINNYLNWYQKPDGTVKLLIYYTSRLHSGVPSRFSGSGSGSDYSLTISNLEQEDIATYFCQQANTLPPTFGAGTKLELR
[1]
  EC50 (read off the curve): ~0.04 µg/mL

B3: recombinant mouse DPP4 (mDPP4) (receptor)
chain: SKDEAAADSRRTYSLADYLKSTFRVKSYSLWWVSDFEYLYKQENNILLLNAEHGNSSIFLENSTFESFGYHSVSPDRLFVLLEYNYVKQWRHSYTASYNIYDVNKRQLITEEKIPNNTQWITWSPEGHKLAYVWKNDIYVKVEPHLPSHRITSTGEENVIYNGITDWVYEEEVFGAYSALWWSPNNTFLAYAQFNDTGVPLIEYSFYSDESLQYPKTVWIPYPKAGAVNPTVKFFIVNIDSLSSSSSAAPIQIPAPASVARGDHYLCDVVWATEERISLQWLRRIQNYSVMAICDYDKINLTWNCPSEQQHVEMSTTGWVGRFRPAEPHFTSDGSSFYKIISDKDGYKHICHFPKDKKDCTFITKGAWEVISIEALTSDYLYYISNQYKEMPGGRNLYKIQLTDHTNVKCLSCDLNPERCQYYAVSFSKEAKYYQLGCWGPGLPLYTLHRSTDHKELRVLEDNSALDRMLQDVQMPSKKLDFIVLNETRFWYQMILPPHFDKSKKYPLLLDVYAGPCSQKADASFRLNWATYLASTENIIVASFDGRGSGYQGDKIMHAINRRLGTLEVEDQIEAARQFVKMGFVDSKRVAIWGWSYGGYVTSMVLGSGSGVFKCGIAVAPVSRWEYYDSVYTERYMGLPIPEDNLDHYRNSTVMSRAEHFKQVEYLLIHGTADDNVHFQQSAQISKALVDAGVDFQAMWYTDEDHGIASSTAHQHIYSHMSHFLQQCFSLH
[2]
  binding result: no binding (tested: about 30 ng/µL)

B4: recombinant human DPP4 with an N-terminal 8xHis-tag (hDPP4-N'His) (receptor)
chain: HHHHHHHHGGGSGGGSGGGSDSRKTYTLTDYLKNTYRLKLYSLRWISDHEYLYKQENNILVFNAEYGNSSVFLENSTFDEFGHSINDYSISPDGQFILLEYNYVKQWRHSYTASYDIYDLNKRQLITEERIPNNTQWVTWSPVGHKLAYVWNNDIYVKIEPNLPSYRITWTGKEDIIYNGITDWVYEEEVFSAYSALWWSPNGTFLAYAQFNDTEVPLIEYSFYSDESLQYPKTVRVPYPKAGAVNPTVKFFVVNTDSLSSVTNATSIQITAPASMLIGDHYLCDVTWATQERISLQWLRRIQNYSVMDICDYDESSGRWNCLVARQHIEMSTTGWVGRFRPSEPHFTLDGNSFYKIISNEEGYRHICYFQIDKKDCTFITKGTWEVIGIEALTSDYLYYISNEYKGMPGGRNLYKIQLSDYTKVTCLSCELNPERCQYYSVSFSKEAKYYQLRCSGPGLPLYTLHSSVNDKGLRVLEDNSALDKMLQNVQMPSKKLDFIILNETKFWYQMILPPHFDKSKKYPLLLDVYAGPCSQKADTVFRLNWATYLASTENIIVASFDGRGSGYQGDKIMHAINRRLGTFEVEDQIEAARQFSKMGFVDNKRIAIWGWSYGGYVTSMVLGSGSGVFKCGIAVAPVSRWEYYDSVYTERYMGLPTPEDNLDHYRNSTVMSRAENFKQVEYLLIHGTADDNVHFQQSAQISKALVDVGVDFQAMWYTDEDHGIASSTAHQHIYTHMSHFIKQCFSLP
notes: range 38-766
[3]
  Kd: 7.8 nM

B5: circulating mouse DPP4 (from serum) (receptor)
chain: SRRTYSLADYLKSTFRVKSYSLWWVSDFEYLYKQENNILLLNAEHGNSSIFLENSTFESFGYHSVSPDRLFVLLEYNYVKQWRHSYTASYNIYDVNKRQLITEEKIPNNTQWITWSPEGHKLAYVWKNDIYVKVEPHLPSHRITSTGEENVIYNGITDWVYEEEVFGAYSALWWSPNNTFLAYAQFNDTGVPLIEYSFYSDESLQYPKTVWIPYPKAGAVNPTVKFFIVNIDSLSSSSSAAPIQIPAPASVARGDHYLCDVVWATEERISLQWLRRIQNYSVMAICDYDKINLTWNCPSEQQHVEMSTTGWVGRFRPAEPHFTSDGSSFYKIISDKDGYKHICHFPKDKKDCTFITKGAWEVISIEALTSDYLYYISNQYKEMPGGRNLYKIQLTDHTNVKCLSCDLNPERCQYYAVSFSKEAKYYQLGCWGPGLPLYTLHRSTDHKELRVLEDNSALDRMLQDVQMPSKKLDFIVLNETRFWYQMILPPHFDKSKKYPLLLDVYAGPCSQKADASFRLNWATYLASTENIIVASFDGRGSGYQGDKIMHAINRRLGTLEVEDQIEAARQFVKMGFVDSKRVAIWGWSYGGYVTSMVLGSGSGVFKCGIAVAPVSRWEYYDSVYTERYMGLPIPEDNLDHYRNSTVMSRAEHFKQVEYLLIHGTADDNVHFQQSAQISKALVDAGVDFQAMWYTDEDHGIASSTAHQHIYSHMSHFLQQCFSLH
[4]
  binding result: no binding
